The text below walks through data of publication PMC8419096.

In the assay the target is HIV-1 precursor Gag (PrGag) protein (HIV-1) (UniProt P04591). The assay can be described thus: dual fluorescence microscopy of virus-like particles.

In turn, “EGFP-Vpr (from UniProt P12520 1-96) (natural protein)” came in with a percent of CA positive particles that were also GFP positive of 39.1%.

B1: VHH52-GFP (control nanobody elicited against the influenza nucleoprotein, fused to GFP) (VHH)
VHH: QVQLQESGGGLVQAGGSLRLTCALSERTSTSYAQGWFRQPPGKEREFVASLRTHDGNTHYTDSVKGRFTISRDNAENTLYLQMNSLKTEDTAVYYCAASLGYSGAYASGYDYWGQGTQVTVSS
In turn, B1 showed a percent of CA positive particles that were also GFP positive of 0.1%.
